These results are taken from PMC2940758, “The N-Terminal Domain of the Arenavirus L Protein Is an RNA Endonuclease Essential in mRNA Transcription”.

The data set deals with T1, NL1 (N-terminal endonuclease domain of L protein) (Lymphocytic choriomeningitis virus …, UniProt P14240 1-196).
T1 sequence: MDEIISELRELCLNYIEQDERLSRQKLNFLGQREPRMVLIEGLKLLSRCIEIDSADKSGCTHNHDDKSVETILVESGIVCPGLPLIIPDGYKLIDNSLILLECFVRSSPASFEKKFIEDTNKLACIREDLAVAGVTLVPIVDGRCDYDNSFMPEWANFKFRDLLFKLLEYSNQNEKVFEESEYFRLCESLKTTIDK
In words: EMSA. As to conditions: protein: recombinant; tags: N-terminal His6; label: 5'-32P; unpaired. Background: A gel shift assay detects complexes by their altered migration in electrophoresis.

AUUUUGUUUUUAAUAUUUC (ssRNA) [19-mer unstructured RNA]: the binding result was “binds”.
